± gives the uncertainty stated by the source.
Experiment: self-splicing fitness, log relative to wild type (ln ratio); higher = more splicing; Tetrahymena group I intron in knt gene, E. coli kanamycin selection, DiMSum; sequences stand for … in CUCUCU…GGAGGGAAAAGUUAUCAGGCAUGCACCUGGUAGCUAGUCUUUAAACCAAUAGAUUGCAUCGGUUUAAAAGGCAAGACCGUCAAAUUGCGGGAAAGGGGUCAACAGCCGUUCAGUACCAAGUCUCAGGGGAAACUUUGAGAUGGCCUUGCAAAGGGUAUGGUAAUAAGCUGACGGACAUGGUCCUAACCACGCAGCCAAGUCCUAAGUCAACAGAUCUUCUGUUGAUAUGGAUGCAGUUCACAGACUAAAUGUCGGUCGGGGAAGAUGUAUUCUUCUCAUAAGAUAUAGUCGGACCUCUCCUUAAUGGGAGCUAGCGGAUGAAGUGAUGCAACACUGGAGCCGCUGGGAACUAAUUUGUAUGCGAAAGUAUAUUGAUUAGUUUUGGAGUACUCGUGGUCG
How it was run: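 Fitness was computed with DiMSum as the error-weighted combination of replicate fold changes, kanamycin versus none, each normalised to wild type. The library randomised all eight intron nucleotides of the P1ex region, with the intron placed in the knt kanamycin-resistance gene on pET-22b(+) in E. coli BL21(DE3). Six replicate transformations were grown overnight at 37°C or 30°C on LB agar with or without 25 μg/mL kanamycin, plus 100 μg/mL carbenicillin, 50 μM IPTG and 0.2% rhamnose. Pooled colonies were amplicon-sequenced on an Illumina HiSeq 2500.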

Sequence	self-splicing fitness (ln) (30 °C)	self-splicing fitness (ln) (37 °C)
UCUGAGCAAUAUUACGUAUA	-2.36 ± 0.17	-2.39 ± 0.18
UUCGAGCAAUAUUACGAGUC	-2.82 ± 0.29	-2.03 ± 0.45
AGGUAGCAAUAUUACGCUAG	-4.002 ± 0.038	-2.89 ± 0.046
UAUCAGCAAUAUUACGUAUG	-0.321 ± 0.042	0.475 ± 0.058
UUGCAGCAAUAUUACGCUAA	-1.12 ± 0.16	-0.551 ± 0.16
AACAAGCAAUAUUACGUACU	-0.11 ± 0.05	0.496 ± 0.071
GUAGAGCAAUAUUACGAAGG	-1.87 ± 0.31	
CCGGAGCAAUAUUACGGCAA	-1.63 ± 0.22	-2.48 ± 0.31
GAUUAGCAAUAUUACGAGUA	-2.63 ± 0.17	-0.695 ± 0.13
CCAUAGCAAUAUUACGGCGA	-2.03 ± 0.26	-1.92 ± 0.23
ACACAGCAAUAUUACGUCUG	-1.65 ± 0.055	-0.547 ± 0.061
GUAGAGCAAUAUUACGGCGU	-0.532 ± 0.077	0.0227 ± 0.088
AUUCAGCAAUAUUACGGUAG	-3.49 ± 0.17	-2.87 ± 0.2
CAAGAGCAAUAUUACGCUCA	-2.63 ± 0.17	-1.08 ± 0.2
GGCGAGCAAUAUUACGAACU	-1.3 ± 0.16	0.292 ± 0.18
CAAGAGCAAUAUUACGUAUA	-4.95 ± 0.3	-1.92 ± 0.15
UUAAAGCAAUAUUACGGAUU	-2.69 ± 0.1	-1.74 ± 0.14
AACAAGCAAUAUUACGAAUG	-3 ± 0.14	-1.97 ± 0.12
CUAAAGCAAUAUUACGUUGG	-2.52 ± 0.12	-0.891 ± 0.1

Sequence	self-splicing fitness (ln) (30 °C)	self-splicing fitness (ln) (37 °C)
CUUUAGCAAUAUUACGUUUG	-2.43 ± 0.17	-1.5 ± 0.17
AAAUAGCAAUAUUACGGAAC	-4.71 ± 0.45	-1.74 ± 0.36
GUGGAGCAAUAUUACGUAUG	-3.15 ± 0.24	-2.3 ± 0.24
AAACAGCAAUAUUACGUAAA	-2.37 ± 0.068	-1.13 ± 0.074
GGAGAGCAAUAUUACGGUUA	-3.19 ± 0.38	
UCGGAGCAAUAUUACGGAUU	-2.73 ± 0.27	-2.85 ± 0.38
CUUGAGCAAUAUUACGACUG	-0.383 ± 0.084	0.0311 ± 0.12
CAGAAGCAAUAUUACGCGCG	-0.373 ± 0.17	0.0448 ± 0.29
UAGCAGCAAUAUUACGGCUU	-1.1 ± 0.11	0.255 ± 0.15
AUAAAGCAAUAUUACGAUGC	-1.39 ± 0.08	-0.56 ± 0.12
UUUUAGCAAUAUUACGCGGG	-0.691 ± 0.17	-0.801 ± 0.17
GCGAAGCAAUAUUACGAUAC	-1.99 ± 0.17	-0.487 ± 0.15
ACAUAGCAAUAUUACGGUGG	-3.62 ± 0.14	-2.14 ± 0.12
AAGGAGCAAUAUUACGGAAA		-0.83 ± 0.24
GACUAGCAAUAUUACGCAUA	-0.568 ± 0.1	-0.145 ± 0.096
ACUCAGCAAUAUUACGUACA	-1.74 ± 0.1	-0.876 ± 0.1
CUAGAGCAAUAUUACGAUAA	-2.85 ± 0.21	-1.3 ± 0.23
AUGAAGCAAUAUUACGAUUA	-0.416 ± 0.082	0.189 ± 0.12
CGAUAGCAAUAUUACGGAGU	-2.09 ± 0.16	-3.36 ± 0.32

From the supplement of paper PMC7877785
